Two proteins from article PMC3266934, “The Murine Coronavirus Hemagglutinin-esterase Receptor-binding Site: A Major Shift in Ligand Specificity through Modest Changes in Architecture” (PLoS Pathogens, 2012) can be followed below.

This data set deals with the molecule itself. As to the kind of experiment: crystal structure; crystals of the thrombin-released ectodomain, space group P2(1)2(1)2(1), two HE molecules in the asymmetric unit; free HE (2.1 Å) and HE^0 soaked with a sialic acid receptor analogue (2.5 Å); 0.2 M KH2PO4, 0.2 M sodium malonate, 15% PEG3350, 18°C.

Positions count from the first letter of the chain named.

B1: MHV-S HE ectodomain (mouse hepatitis virus strain S hemagglutinin-esterase, residues 25-403), released from HE-Fc by thrombin cleavage (domain or fragment)
chain: FNEPLNIVSHLNDDWFLFGDSRSDCTYVENNGHPKLDWLDLDPKLCNSGRISAKSGNSLFRSFHFIDFYNYSGEGDQVIFYEGVNFSPSHGFKCLAYGDNKRWMGNKARFYARVYEKMAQYRSLSFVNVSYAYGGNAKPTSICKDKTLTLNNPTFISKESNYVDYYYESEANFTLQGCDEFIVPLCVFNGHSKGSSSDPANKYYTDSQSYYNMDTGVLYGFNSTLDVGNTVQNPGLDLTCRYLALTPGNYKAVSLEYLLSLPSKAICLRKPKSFMPVQVVDSRWNSTRQSDNMTAVACQLPYCFFRNTSADYSGGTHDVHHGDFHFRQLLSGLLYNVSCIAQQGAFVYNNVSSSWPAYGYGHCPTAANIGYMAPVCIYD
notes: also called free MHV-S HE; not shown: Fc (human IgG1), C-terminal, cleaved
Regarding B1, the binding result is listed as “binds”.

B2: MHV-S HE^0 ectodomain (esterase-inactive, Ser45 replaced by Ala, residues 25-403), released from HE^0-Fc by thrombin cleavage (domain or fragment)
chain: B1 chain with S21A
notes: not shown: Fc (human IgG1), C-terminal, cleaved
As to B2, the binding result is reported as “binds”.
